The target in test [1] is feline FcRn complex (FcRn-α subunit and β-microglobulin), biotin labeled (feline). The test is described as follows: SPR, pH 7.4. On the technique in general: Surface plasmon resonance follows binding to a sensor surface in real time, without labels.
For test [2] the target is unchanged. As to the kind of experiment: SPR, pH 6.

B1: feline IgG1a S252Y/S428M/Q311Y (antibody, part only; not given: Variable domains, not shown: another chain or arm of the molecule)
constant: ASTTAPSVFPLAPSCGTTSGATVALACLVLGYFPEPVTVSWNSGALTSGVHTFPAVLQASGLYSLSSMVTVPSSRWLSDTFTCNVAHPPSNTKVDKTVRKTDHPPGPKPCDCPKCPPPEMLGGPSIFIFPPKPKDTLYISRTPEVTCLVVDLGPDDSDVQITWFVDNTQVYTAKTSPREEQFNSTYRVVSVLPILHYDWLKGKEFKCKVNSKSLPSPIERTISKAKGQPHEPQVYVLPPAQEELSRNKVSVTCLIKSFHPPDIAVEWEITGQPEPENNYRTTPPQLDSDGTYFVYSKLSVDRSHWQRGNTYTCSVMHEALHSHHTQKSLTQSPGK
For B1, the results for the Kd in test [1] and in test [2] were 39.9 nM and 2.4 nM, respectively.

B2: feline IgG1a Q311K (antibody, part only; not given: Variable domains, not shown: another chain or arm of the molecule)
constant: ASTTAPSVFPLAPSCGTTSGATVALACLVLGYFPEPVTVSWNSGALTSGVHTFPAVLQASGLYSLSSMVTVPSSRWLSDTFTCNVAHPPSNTKVDKTVRKTDHPPGPKPCDCPKCPPPEMLGGPSIFIFPPKPKDTLSISRTPEVTCLVVDLGPDDSDVQITWFVDNTQVYTAKTSPREEQFNSTYRVVSVLPILHKDWLKGKEFKCKVNSKSLPSPIERTISKAKGQPHEPQVYVLPPAQEELSRNKVSVTCLIKSFHPPDIAVEWEITGQPEPENNYRTTPPQLDSDGTYFVYSKLSVDRSHWQRGNTYTCSVSHEALHSHHTQKSLTQSPGK
Consider B2, for which the dissociation constant Kd (commonly the constant that tells how readily two partners part at equilibrium) in test [1] stood at 1750 nM; in test [2], 4.85 nM.

B3: feline IgG1a L309I (antibody, part only; not given: variable domains, not shown: another chain or arm of the molecule)
constant: ASTTAPSVFPLAPSCGTTSGATVALACLVLGYFPEPVTVSWNSGALTSGVHTFPAVLQASGLYSLSSMVTVPSSRWLSDTFTCNVAHPPSNTKVDKTVRKTDHPPGPKPCDCPKCPPPEMLGGPSIFIFPPKPKDTLSISRTPEVTCLVVDLGPDDSDVQITWFVDNTQVYTAKTSPREEQFNSTYRVVSVLPIIHQDWLKGKEFKCKVNSKSLPSPIERTISKAKGQPHEPQVYVLPPAQEELSRNKVSVTCLIKSFHPPDIAVEWEITGQPEPENNYRTTPPQLDSDGTYFVYSKLSVDRSHWQRGNTYTCSVSHEALHSHHTQKSLTQSPGK
In the case of B3, the dissociation constant Kd in test [1] worked out at 4530 nM; in test [2], 6.81 nM.

B4: feline IgG1a G402R (antibody, part only; not given: Variable domains, not shown: another chain or arm of the molecule)
constant: ASTTAPSVFPLAPSCGTTSGATVALACLVLGYFPEPVTVSWNSGALTSGVHTFPAVLQASGLYSLSSMVTVPSSRWLSDTFTCNVAHPPSNTKVDKTVRKTDHPPGPKPCDCPKCPPPEMLGGPSIFIFPPKPKDTLSISRTPEVTCLVVDLGPDDSDVQITWFVDNTQVYTAKTSPREEQFNSTYRVVSVLPILHQDWLKGKEFKCKVNSKSLPSPIERTISKAKGQPHEPQVYVLPPAQEELSRNKVSVTCLIKSFHPPDIAVEWEITGQPEPENNYRTTPPQLDSDRTYFVYSKLSVDRSHWQRGNTYTCSVSHEALHSHHTQKSLTQSPGK
As for B4, the Kd in test [1] stood at 1200 nM; in test [2], 6.1 nM.

B5: feline IgG1a S252Y/S428M/S434F (antibody, part only; not given: Variable domains, not shown: another chain or arm of the molecule)
constant: ASTTAPSVFPLAPSCGTTSGATVALACLVLGYFPEPVTVSWNSGALTSGVHTFPAVLQASGLYSLSSMVTVPSSRWLSDTFTCNVAHPPSNTKVDKTVRKTDHPPGPKPCDCPKCPPPEMLGGPSIFIFPPKPKDTLYISRTPEVTCLVVDLGPDDSDVQITWFVDNTQVYTAKTSPREEQFNSTYRVVSVLPILHQDWLKGKEFKCKVNSKSLPSPIERTISKAKGQPHEPQVYVLPPAQEELSRNKVSVTCLIKSFHPPDIAVEWEITGQPEPENNYRTTPPQLDSDGTYFVYSKLSVDRSHWQRGNTYTCSVMHEALHFHHTQKSLTQSPGK
B5: the equilibrium dissociation constant (Kd) in test [1] came to 9.13 nM; in test [2] it was 0.0207 nM.

B6: feline IgG1a D399V (antibody, part only; not given: Variable domains, not shown: another chain or arm of the molecule)
constant: ASTTAPSVFPLAPSCGTTSGATVALACLVLGYFPEPVTVSWNSGALTSGVHTFPAVLQASGLYSLSSMVTVPSSRWLSDTFTCNVAHPPSNTKVDKTVRKTDHPPGPKPCDCPKCPPPEMLGGPSIFIFPPKPKDTLSISRTPEVTCLVVDLGPDDSDVQITWFVDNTQVYTAKTSPREEQFNSTYRVVSVLPILHQDWLKGKEFKCKVNSKSLPSPIERTISKAKGQPHEPQVYVLPPAQEELSRNKVSVTCLIKSFHPPDIAVEWEITGQPEPENNYRTTPPQLVSDGTYFVYSKLSVDRSHWQRGNTYTCSVSHEALHSHHTQKSLTQSPGK
In the case of B6, the Kd in test [1] stood at 2880 nM; in test [2] it was 8.29 nM.

B7: feline IgG1a Q311I (antibody, part only; not given: Variable domains, not shown: another chain or arm of the molecule)
constant: ASTTAPSVFPLAPSCGTTSGATVALACLVLGYFPEPVTVSWNSGALTSGVHTFPAVLQASGLYSLSSMVTVPSSRWLSDTFTCNVAHPPSNTKVDKTVRKTDHPPGPKPCDCPKCPPPEMLGGPSIFIFPPKPKDTLSISRTPEVTCLVVDLGPDDSDVQITWFVDNTQVYTAKTSPREEQFNSTYRVVSVLPILHIDWLKGKEFKCKVNSKSLPSPIERTISKAKGQPHEPQVYVLPPAQEELSRNKVSVTCLIKSFHPPDIAVEWEITGQPEPENNYRTTPPQLDSDGTYFVYSKLSVDRSHWQRGNTYTCSVSHEALHSHHTQKSLTQSPGK
Turning to B7, the Kd in test [1] was determined as 77.1 nM; in test [2], 7 nM.

B8: feline IgG1a S252Y/S428M/S434P (antibody, part only; not given: Variable domains, not shown: another chain or arm of the molecule)
constant: ASTTAPSVFPLAPSCGTTSGATVALACLVLGYFPEPVTVSWNSGALTSGVHTFPAVLQASGLYSLSSMVTVPSSRWLSDTFTCNVAHPPSNTKVDKTVRKTDHPPGPKPCDCPKCPPPEMLGGPSIFIFPPKPKDTLYISRTPEVTCLVVDLGPDDSDVQITWFVDNTQVYTAKTSPREEQFNSTYRVVSVLPILHQDWLKGKEFKCKVNSKSLPSPIERTISKAKGQPHEPQVYVLPPAQEELSRNKVSVTCLIKSFHPPDIAVEWEITGQPEPENNYRTTPPQLDSDGTYFVYSKLSVDRSHWQRGNTYTCSVMHEALHPHHTQKSLTQSPGK
For the molecule B8, the Kd came to 44.4 nM in test [1] and 4.86 nM in test [2].

B9: feline IgG1a Q311R (antibody, part only; not given: Variable domains, not shown: another chain or arm of the molecule)
constant: ASTTAPSVFPLAPSCGTTSGATVALACLVLGYFPEPVTVSWNSGALTSGVHTFPAVLQASGLYSLSSMVTVPSSRWLSDTFTCNVAHPPSNTKVDKTVRKTDHPPGPKPCDCPKCPPPEMLGGPSIFIFPPKPKDTLSISRTPEVTCLVVDLGPDDSDVQITWFVDNTQVYTAKTSPREEQFNSTYRVVSVLPILHRDWLKGKEFKCKVNSKSLPSPIERTISKAKGQPHEPQVYVLPPAQEELSRNKVSVTCLIKSFHPPDIAVEWEITGQPEPENNYRTTPPQLDSDGTYFVYSKLSVDRSHWQRGNTYTCSVSHEALHSHHTQKSLTQSPGK
For the molecule B9, the equilibrium dissociation constant (Kd) in test [1] was 67.2 nM; in test [2] it was 4.56 nM.

B10: feline IgG1a D399M (antibody, part only; not given: Variable domains, not shown: another chain or arm of the molecule)
constant: ASTTAPSVFPLAPSCGTTSGATVALACLVLGYFPEPVTVSWNSGALTSGVHTFPAVLQASGLYSLSSMVTVPSSRWLSDTFTCNVAHPPSNTKVDKTVRKTDHPPGPKPCDCPKCPPPEMLGGPSIFIFPPKPKDTLSISRTPEVTCLVVDLGPDDSDVQITWFVDNTQVYTAKTSPREEQFNSTYRVVSVLPILHQDWLKGKEFKCKVNSKSLPSPIERTISKAKGQPHEPQVYVLPPAQEELSRNKVSVTCLIKSFHPPDIAVEWEITGQPEPENNYRTTPPQLMSDGTYFVYSKLSVDRSHWQRGNTYTCSVSHEALHSHHTQKSLTQSPGK
Take B10: the Kd in test [1] was found to be 46.8 nM; in test [2], 5.33 nM.

B11: feline IgG1a Q311F (antibody, part only; not given: Variable domains, not shown: another chain or arm of the molecule)
constant: ASTTAPSVFPLAPSCGTTSGATVALACLVLGYFPEPVTVSWNSGALTSGVHTFPAVLQASGLYSLSSMVTVPSSRWLSDTFTCNVAHPPSNTKVDKTVRKTDHPPGPKPCDCPKCPPPEMLGGPSIFIFPPKPKDTLSISRTPEVTCLVVDLGPDDSDVQITWFVDNTQVYTAKTSPREEQFNSTYRVVSVLPILHFDWLKGKEFKCKVNSKSLPSPIERTISKAKGQPHEPQVYVLPPAQEELSRNKVSVTCLIKSFHPPDIAVEWEITGQPEPENNYRTTPPQLDSDGTYFVYSKLSVDRSHWQRGNTYTCSVSHEALHSHHTQKSLTQSPGK
B11: the dissociation constant (Kd) in test [1] turned out to be 1370 nM; in test [2], 8.85 nM.

B12: feline IgG1a Q311H (antibody, part only; not given: Variable domains, not shown: another chain or arm of the molecule)
constant: ASTTAPSVFPLAPSCGTTSGATVALACLVLGYFPEPVTVSWNSGALTSGVHTFPAVLQASGLYSLSSMVTVPSSRWLSDTFTCNVAHPPSNTKVDKTVRKTDHPPGPKPCDCPKCPPPEMLGGPSIFIFPPKPKDTLSISRTPEVTCLVVDLGPDDSDVQITWFVDNTQVYTAKTSPREEQFNSTYRVVSVLPILHHDWLKGKEFKCKVNSKSLPSPIERTISKAKGQPHEPQVYVLPPAQEELSRNKVSVTCLIKSFHPPDIAVEWEITGQPEPENNYRTTPPQLDSDGTYFVYSKLSVDRSHWQRGNTYTCSVSHEALHSHHTQKSLTQSPGK
With B12, the dissociation constant (Kd) in test [1] came out at 93.7 nM; in test [2], 5.84 nM.

B13: feline IgG1a S252Y/S428M/S434L (antibody, part only; not given: Variable domains, not shown: another chain or arm of the molecule)
constant: ASTTAPSVFPLAPSCGTTSGATVALACLVLGYFPEPVTVSWNSGALTSGVHTFPAVLQASGLYSLSSMVTVPSSRWLSDTFTCNVAHPPSNTKVDKTVRKTDHPPGPKPCDCPKCPPPEMLGGPSIFIFPPKPKDTLYISRTPEVTCLVVDLGPDDSDVQITWFVDNTQVYTAKTSPREEQFNSTYRVVSVLPILHQDWLKGKEFKCKVNSKSLPSPIERTISKAKGQPHEPQVYVLPPAQEELSRNKVSVTCLIKSFHPPDIAVEWEITGQPEPENNYRTTPPQLDSDGTYFVYSKLSVDRSHWQRGNTYTCSVMHEALHLHHTQKSLTQSPGK
B13: the figures for the dissociation constant (Kd) in test [1] and in test [2] were 28.9 nM and 6.91 nM, respectively.

B14: feline IgG1a L309G (antibody, part only; not given: Variable domains, not shown: another chain or arm of the molecule)
constant: ASTTAPSVFPLAPSCGTTSGATVALACLVLGYFPEPVTVSWNSGALTSGVHTFPAVLQASGLYSLSSMVTVPSSRWLSDTFTCNVAHPPSNTKVDKTVRKTDHPPGPKPCDCPKCPPPEMLGGPSIFIFPPKPKDTLSISRTPEVTCLVVDLGPDDSDVQITWFVDNTQVYTAKTSPREEQFNSTYRVVSVLPIGHQDWLKGKEFKCKVNSKSLPSPIERTISKAKGQPHEPQVYVLPPAQEELSRNKVSVTCLIKSFHPPDIAVEWEITGQPEPENNYRTTPPQLDSDGTYFVYSKLSVDRSHWQRGNTYTCSVSHEALHSHHTQKSLTQSPGK
In the case of B14, the dissociation constant Kd is 54.5 nM in test [1] and 9.12 nM in test [2].

B15: feline IgG1a Q311M (antibody, part only; not given: Variable domains, not shown: another chain or arm of the molecule)
constant: ASTTAPSVFPLAPSCGTTSGATVALACLVLGYFPEPVTVSWNSGALTSGVHTFPAVLQASGLYSLSSMVTVPSSRWLSDTFTCNVAHPPSNTKVDKTVRKTDHPPGPKPCDCPKCPPPEMLGGPSIFIFPPKPKDTLSISRTPEVTCLVVDLGPDDSDVQITWFVDNTQVYTAKTSPREEQFNSTYRVVSVLPILHMDWLKGKEFKCKVNSKSLPSPIERTISKAKGQPHEPQVYVLPPAQEELSRNKVSVTCLIKSFHPPDIAVEWEITGQPEPENNYRTTPPQLDSDGTYFVYSKLSVDRSHWQRGNTYTCSVSHEALHSHHTQKSLTQSPGK
Take B15: the results for the dissociation constant Kd in test [1] and in test [2] were 5100 nM and 4.97 nM, respectively.
